Laboratory results from publication PMC8448731 (Nature Communications, 2021).

Biological target: T1, SARS-CoV-2 spike RBD with C-terminal 3xFlag tag and N-terminal signal peptide of the spike (RBD-3xFlag) (SARS-CoV-2, Wuhan-Hu-1 type (wild type), UniProt P0DTC2)
T1 construct: also called RBD-3×Flag; wild-type RBD; not shown: 3xFlag, C-terminal, kept
Assay: ELISA
Conditions: one partner purified

Row | Binder | binding result
1 | SR6c3 (VHH, not shown: 6xHis, C-terminal, kept) VHH: EVQLVESGGGLVQAGDSLRLSCAASGDCHVLWRMGWFRQAPGKEREFVAAISLDGQFTNYADSVRGRFSISADSAKNTVYLQMNSLKPEDTAVYYCAALPFLDYWGQGTQVTVSS | binds
2 | SR6v1 (VHH, not shown: 6xHis, C-terminal, kept) VHH: EVQLVESGGGLVQAGDSLRLSCAASGDSHVLWRMGWFRQAPGKEREFVAAISLDGQFTNYADSVRGRFSISADSAKNTVYLQMNSLKPEDTAVYYCAALPFLDYWGQGTQVTVSS | binds
3 | SR6v7 (VHH, not shown: 6xHis, C-terminal, kept) VHH: EVQLVESGGGLVQAGDSLRLSCAASGDSYILWRMGWFRQAPGKEREFVAAISLDGQFTNYADSVRGRFSISADSAKNTVYLQMNSLKPEDTAVYYCAALPFLDYWGQGTQVTVSS | binds
4 | SR6v9 (VHH, not shown: 6xHis, C-terminal, kept) VHH: EVQLVESGGGLVQAGDSLRLSCAASGDSHVLWRMGWFRQAPGKEREFVAAISLDGQFTNYADSVRGRFSISADSAKYTVYLQMNSLKPEDTAVYYCAALPFLDYWGQGTQVTVSS | binds
5 | SR12c3 (VHH, not shown: 6xHis, C-terminal, kept) VHH: EVQLVESGGGLVQAGDSLRLSCAASGAIVHVFAMGWFRQAPGKEREFVASINLDNDVTNYADSVKGRFTISRDDARNTVYLQMNSLKPEDTAVYYCNATIFTDSGLGDYWGQGTQVTVSS | binds
6 | SR12 (VHH, not shown: 6xHis, C-terminal, kept) VHH: EVQLVESGGGLVQAGDSLRLSCAASGAIVHVFAMGWFRQAPGKEREFVASINLDNDATNYADSVKGRFTISRDDARNTVYLQMNSLKPEDTAVYYCNATIFMDSDLGDYWGQGTQVTVSS | binds
7 | SR2 (VHH, not shown: 6xHis, C-terminal, kept) VHH: EVQLVESGGGLVQAGDSLRLSCAASGAFGSNVFMGWFRQAPGKEREFVASITPHHTVTDYADSVRGRFSISADSAKNTVYLQMNSLKPEDTAVYYCAAAIYRNASVLDYWGQGTQVTVSS | binds
8 | SR1 (VHH, not shown: 6xHis, C-terminal, kept) VHH: EVQLVESGGGLVQAGDSLRLSCAASGKTGRSVIMGWFRQAPDKEREFVATITRGDDTTNYADSVKGRFTISRDDARNTVYLQMNSLKPEDTAVYYCAAVYFVNDCIVDYWGQGTQVTVSS | binds
